Tests used:
[1] = target: GST::PalC (Aspergillus nidulans); assay: pull-down
[2] = target: Vps32 (Aspergillus nidulans); assay: two-hybrid
Chain of Vps32 (Aspergillus nidulans) (C8V487 whole entry): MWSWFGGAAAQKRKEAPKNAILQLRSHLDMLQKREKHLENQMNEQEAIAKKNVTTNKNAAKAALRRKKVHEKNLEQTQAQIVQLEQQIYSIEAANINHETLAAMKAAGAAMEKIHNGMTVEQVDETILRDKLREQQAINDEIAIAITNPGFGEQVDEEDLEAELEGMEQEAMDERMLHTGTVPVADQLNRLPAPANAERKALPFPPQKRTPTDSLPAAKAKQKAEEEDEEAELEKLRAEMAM

Substance: zz-Vps32 (natural protein)
- stoichiometry N (mol of zz-Vps32 per mole of GST::PalC) [1]: 0.9

Substance: PalC Arg442Ala (natural protein)
- β-galactosidase activity, % of the wild type (% of the wild type) [2]: 18

Substance: PalC Arg442His (natural protein)
- β-galactosidase activity, % of the wild type (% of the wild type) [2]: 11
